According to patent US20170369569A1 (KAO, published 2017):
Ends that are not written are not given here.

How the values were obtained:
[1] = target: T1, GIP(1-7) synthetic peptide; assay: direct ELISA on immobilized peptide, biotinylated antibody, peroxidase-streptavidin
T1 peptide: H-YAEGTFI-OH
Description: (§1) The synthesized 6 peptides were each diluted to 1 μg/mL with PBS(−) and immobilized onto 96-well plates. ELISA was conducted using the biotinylated anti-active GIP monoclonal antibody and a peroxidase-streptavidin conjugate for detection.

[2] = target: T2, GIP(1-6) synthetic peptide; assay: as above
T2 peptide: H-YAEGTF-OH
Description: as §1

[3] = target: T3, GIP(1-6)+GIP nonspecific 4aa (random 4aa) synthetic peptide; assay: as above
T3 construct: also called GIP(1-6)+random 4aa
T3 peptide: H-YAEGTFVNLV-OH
Description: as §1

[4] = target: T4, PEGylated N-terminal 13 amino acids of nonactive GIP (GIP(3-15)), antigen (2) for measurement (human, also: PEGylated, site not given here); assay: ELISA on immobilized antigen, hybridoma culture supernatant, HRP-labeled anti-mouse Ig secondary antibody
T4 construct: also called PEGylated GIP(3-15)
T4 peptide: EGTFISDYSIAMD
Description: (§2) The antigens (1) and (2) for measurement were each diluted to 1 μg/mL with PBS(−) and immobilized onto plates.

[5] = target: T5, PEGylated N-terminal 15 amino acids of active GIP (GIP(1-15)), antigen (1) for measurement (human, also: PEGylated, site not given here); assay: ELISA on immobilized antigen (1 µg/mL), hybridoma culture supernatant, HRP-labeled anti-mouse Ig secondary antibody
T5 construct: also called PEGylated GIP(1-15)
T5 peptide: YAEGTFISDYSIAMD
Description: as §2

nonactive GIP, GIP(3-42) = target: T6, nonactive GIP, GIP(3-42) (human); assay: sandwich ELISA, anti-total GIP capture antibody, biotinylated anti-active GIP antibody (1 µg/mL) as detection
T6 peptide: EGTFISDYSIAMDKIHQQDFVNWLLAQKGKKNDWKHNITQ
Description: (§3) The reactivity of the monoclonal antibody obtained in Example 1 with active GIP was confirmed by ELISA. The amino group of the anti-active GIP monoclonal antibody was biotinylated using a NH₂ group biotinylation kit (manufactured by Dojindo Laboratories). ELISA was conducted using 1 μg/mL prepared biotinylated anti-active GIP monoclonal antibody instead of a detection antibody ‘GIP detection antibody’ (biotinylated anti-total GIP monoclonal antibody) included in Human (total) GIP ELISA kit (manufactured by Merck Millipore). Six 4-fold serial dilutions (8.2 to 2000 pg/mL) were prepared with a 2000 pg/mL solution of GIP(1-42) or GIP(3-42) as the highest concentration. The capture antibody used was an anti-total GIP monoclonal antibody (included in the Human GIP (total) ELISA kit manufactured by Merck Millipore). The detection antibody used was the biotinylated anti-active GIP monoclonal antibody. A sandwich ELISA system containing a peroxidase-streptavidin conjugate was used in detection. GIP concentrations were plotted on the X axis against absorbance of 450 nm to 590 nm on the Y axis to prepare a calibration curve (FIG. 1).

active GIP, GIP(1-42) = target: T7, active GIP, GIP(1-42) (human); assay: sandwich ELISA, anti-total GIP capture antibody, biotinylated anti-active GIP antibody (1 µg/mL) as detection, GIP 8.2 to 2000 pg/mL
T7 construct: also called human active GIP
T7 peptide: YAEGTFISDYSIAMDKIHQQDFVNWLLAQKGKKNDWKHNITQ
Description: as §3

[6] = target: T8, GIP (1-9) synthetic peptide; assay: direct ELISA on immobilized peptide (1 µg/mL), biotinylated antibody, peroxidase-streptavidin
T8 peptide: H-YAEGTFISD-OH
Description: as §1

[7] = target: T9, GIP (1-10) synthetic peptide; assay: as above
T9 construct: Free NH2 and COOH termini as printed
T9 peptide: H-YAEGTFISDY-OH
Description: as §1

[8] = target: T10, GIP(1-8) synthetic peptide; assay: as above
T10 peptide: H-YAEGTFIS-OH
Description: as §1

B1: anti-active GIP monoclonal antibody produced from hybridoma 9B9H5-B9 line (antibody, V domains shown)
VH: QVQLQQPGAELVKPGASVKLSCKASGYTFTSFWMHWVIQRPGQGLEWIGEMNPSDGRTHFNEKFKTKATLTIDTSSNTAYMELNSLTSEDSAVYYCARRMEDWGQGTLVTVSA
VL: DIKMTQSPSSMYASLGERVTITCKASQDINSYLGWFQQKPGKSPKTLIYGANRLVDGVPSRFSGSGSGQDYSLTISSLEYDDMGIYYCLQYDEFPLTFGAGTKLELKR
notes: Mouse (BALB/c) hybridoma monoclonal antibody, purified on protein A. It was amplified with a mouse IgG H chain-specific primer; also called biotinylated anti-active GIP monoclonal antibody; anti-active GIP antibody of the present invention
**Q.** Which results are given for B1?
**A.** binding result [1]: no binding (tested: peptide coated at 1 µg/mL); binding result [2]: no binding (tested: peptide coated at 1 µg/mL); binding result [3]: no binding (tested: peptide coated at 1 µg/mL); binding result [4]: no binding (tested: antigen coated at 1 µg/mL); binding result [5]: binds; binding result (nonactive GIP, GIP(3-42)): no binding (tested: 8.2 to 2000 pg/mL); binding result (active GIP, GIP(1-42)): binds; binding result [6]: binds; binding result [7]: binds; binding result [8]: binds
